Data reported in article PMC11618653.

Experiments:
[1] = target: cysteine desulfurase NFS1 (subunit of the (NIA)2 subcomplex) (human)
[2] = target: iron-sulfur scaffold protein ISCU2, iron-loaded (human) (UniProt Q9H1K1)
[3] = target: cysteine desulfurase NFS1 (subunit of the (NIA)2 subcomplex) (human); remark: listed apart in the source

Chain of UniProt Q9H1K1 (Q9H1K1 35-167): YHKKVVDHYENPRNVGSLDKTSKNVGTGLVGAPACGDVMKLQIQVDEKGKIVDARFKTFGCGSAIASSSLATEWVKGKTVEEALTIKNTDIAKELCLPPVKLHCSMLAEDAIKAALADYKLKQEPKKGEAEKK

initial rate of [2Fe-2S] cluster synthesis (CD) at 5 µM FDX2 variant, against wild-type FDX2 [1] [fold higher] | Substance | other results
< 4 | FDX2 truncation variant lacking 5 C-terminal residues (ΔC5) (from UniProt Q6P4F2 53-181) (domain or fragment) | –
– | FDX2-CL variant (cluster-binding loop residues 109EASL112 replaced with GGSC) (from UniProt Q6P4F2 66-183) (natural protein) | initial rates of [2Fe-2S] cluster synthesis (CD) against the concentration of the FDX2 variant, maximum at 1.5 µM, against wild-type FDX2 [2]: 2 fold slower
– | FDX2-DA variant (Asp137-Asp138 exchanged to Ala) (from UniProt Q6P4F2 66-183) (natural protein) | initial rate of [2Fe-2S] cluster synthesis on ISCU2 (CD), dithionite-reduced ferredoxin, against dithionite-reduced wild-type FDX2 [3]: 4 fold slower
< 4 | FDX2 truncation variant lacking 10 C-terminal residues (ΔC10) (from UniProt Q6P4F2 53-176) (domain or fragment) | –
